Reference: patent US20070072210

Tested on: T1, His-tagged full length BAAT1 (baculovirus, produced in Sf9 cells)
T1 sequence: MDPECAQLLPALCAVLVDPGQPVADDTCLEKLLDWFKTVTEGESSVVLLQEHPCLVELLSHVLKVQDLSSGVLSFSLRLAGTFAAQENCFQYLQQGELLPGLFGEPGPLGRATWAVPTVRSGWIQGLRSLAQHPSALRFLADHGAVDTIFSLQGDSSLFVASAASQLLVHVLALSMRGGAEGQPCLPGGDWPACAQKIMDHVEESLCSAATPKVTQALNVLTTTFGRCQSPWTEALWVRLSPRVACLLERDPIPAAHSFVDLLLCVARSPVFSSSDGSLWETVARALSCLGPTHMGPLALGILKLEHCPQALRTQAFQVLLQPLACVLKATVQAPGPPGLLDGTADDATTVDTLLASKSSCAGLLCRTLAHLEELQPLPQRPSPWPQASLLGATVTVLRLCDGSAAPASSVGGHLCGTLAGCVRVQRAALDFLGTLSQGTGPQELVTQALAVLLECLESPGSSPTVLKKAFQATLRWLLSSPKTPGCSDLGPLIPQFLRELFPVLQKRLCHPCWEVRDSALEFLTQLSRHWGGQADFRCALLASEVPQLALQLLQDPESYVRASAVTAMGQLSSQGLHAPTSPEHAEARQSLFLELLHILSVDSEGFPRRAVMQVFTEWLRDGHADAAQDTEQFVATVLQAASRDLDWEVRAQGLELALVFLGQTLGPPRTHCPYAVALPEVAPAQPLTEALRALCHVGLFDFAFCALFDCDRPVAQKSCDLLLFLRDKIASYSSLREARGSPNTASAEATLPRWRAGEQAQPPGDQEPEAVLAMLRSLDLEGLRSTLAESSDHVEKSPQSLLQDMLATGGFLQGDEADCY

ataxia telangiectasia mutated (endogenous, from human cell lysates)
in vitro PP2A phosphatase assay on immunoprecipitated ATM, Ser1981 phosphorylation by immunoblot: dephosphorylation of ATM Ser1981 was partially blocked in the presence of full length, baculovirus produced BAAT1
